Experimental data from patent US4701455A, “Biopterin analogs” (Burroughs Wellcome Co., priority 1983, dated 1987).

System: C[C@H](O)[C@H](O)[C@H]1CNc2nc(N)[nH]c(=O)c2N1
Test: purified protein, by the assay type
Conditions: other: Km of substrate (tyrosine) with the pterin as cofactor

Tyrosine hydroxylase (Homo sapiens), sequence (chain, as listed by the source): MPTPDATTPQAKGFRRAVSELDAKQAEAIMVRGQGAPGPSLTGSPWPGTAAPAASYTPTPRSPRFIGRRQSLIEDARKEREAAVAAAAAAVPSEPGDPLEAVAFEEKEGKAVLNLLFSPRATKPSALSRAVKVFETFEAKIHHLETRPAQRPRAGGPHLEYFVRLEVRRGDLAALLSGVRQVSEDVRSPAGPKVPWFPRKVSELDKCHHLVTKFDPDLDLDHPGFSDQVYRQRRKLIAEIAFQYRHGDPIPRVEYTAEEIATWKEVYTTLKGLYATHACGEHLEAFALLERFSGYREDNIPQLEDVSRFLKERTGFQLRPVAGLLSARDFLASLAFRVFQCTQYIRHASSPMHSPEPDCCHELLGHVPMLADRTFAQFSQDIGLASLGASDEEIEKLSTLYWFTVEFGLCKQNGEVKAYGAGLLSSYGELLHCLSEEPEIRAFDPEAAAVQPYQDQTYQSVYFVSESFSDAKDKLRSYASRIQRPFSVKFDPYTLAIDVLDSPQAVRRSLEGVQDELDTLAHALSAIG

Question: How did the Km turn out when Tyrosine hydroxylase (Homo sapiens) was run?
Answer: 16.0 µM
